From patent US20030161809A1 (published 2003)

Tests used:
[1] = target: pIgR Domain 6 GST (D6-GST) fusion protein, species not named; assay: SPR (Biacore), 1:1 Langmuir model; ligand not given
[2] = target: T1, GST-Human-stalk fusion protein (Schistosoma japonica; human, UniProt P01833 550-638); assay: SPR (Biacore), D6-GST captured on anti-GST antibody, 1:1 Langmuir global fit
T1 construct: domain: stalk; About 37.8 kD; also called D6 human; human pIgR Domain 6 GST (D6-GST) fusion protein; not shown: glutathione-S-transferase from Schistosoma japonica, from vector pGEX-2TK
T1 sequence (P01833 550-638, tags left off): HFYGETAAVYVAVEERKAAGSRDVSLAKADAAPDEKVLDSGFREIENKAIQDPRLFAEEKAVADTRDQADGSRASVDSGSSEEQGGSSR

[3] = target: T2, GST-Cyn monkey-stalk fusion protein (Schistosoma japonica; cynomolgus monkey); assay: as above
T2 construct: also called D6 cyno; Cyno; not shown: GST (Schistosoma japonicum, from pGEX-2TK) and its linker before the GS
T2 chain: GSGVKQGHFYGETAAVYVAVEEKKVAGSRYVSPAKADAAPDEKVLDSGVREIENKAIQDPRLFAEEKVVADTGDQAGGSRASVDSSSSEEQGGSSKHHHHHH

[4] = target: T3, GST-Rat-stalk fusion protein (Schistosoma japonica; rat, UniProt P15083 535-643); assay: as above
T3 construct: domain: stalk; About 39.3 kD, no 6xHis tag; also called [GST]-[rat domain 6] fusion protein; D6 rat; not shown: glutathione-S-transferase from Schistosoma japonica, from vector pGEX-2TK
T3 sequence (looked up): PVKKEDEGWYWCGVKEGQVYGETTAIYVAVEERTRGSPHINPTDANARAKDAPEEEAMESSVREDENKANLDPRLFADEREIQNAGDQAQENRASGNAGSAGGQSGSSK

[5] = target: T1, GST-Human-stalk fusion protein; assay: SPR (Biacore), D6-GST captured on anti-GST antibody
[6] = target: T2, GST-Cyn monkey-stalk fusion protein; assay: as above
[7] = target: T3, GST-Rat-stalk fusion protein; assay: as above
[8] = target: T1, GST-Human-stalk fusion protein; assay: SPR (Biacore), D6-GST captured on anti-GST antibody, global fit
[9] = target: T2, GST-Cyn monkey-stalk fusion protein; assay: as above
[10] = target: T3, GST-Rat-stalk fusion protein; assay: as above
[11] = target: pIgR expressed on transfected MDCK cells; assay: cell-based or functional assay

| Binder | Ka [1] [M⁻¹] | Kd [1] [µM] | koff [1] [s⁻¹] | kon [1] [M⁻¹ s⁻¹] | Ka [2] [M⁻¹] | Kd [2] [µM] | koff [2] [s⁻¹] | kon [2] [M⁻¹ s⁻¹] | Ka [8] [M⁻¹] | Kd [8] [µM] | koff [8] [s⁻¹] | kon [8] [M⁻¹ s⁻¹] | Ka [9] [M⁻¹] | Kd [9] [µM] | koff [9] [s⁻¹] | kon [9] [M⁻¹ s⁻¹] | Ka [10] [M⁻¹] | Kd [10] [µM] | koff [10] [s⁻¹] | kon [10] [M⁻¹ s⁻¹] | other results |
| --- | --- | --- | --- | --- | --- | --- | --- | --- | --- | --- | --- | --- | --- | --- | --- | --- | --- | --- | --- | --- | --- |
| sFv5AF-Cys (starting material, mixture of monomer and dimer) (scFv, also called s5AF-Cys) scFv: DYKAKQVQLVQSGGGVVQPGRSLRLSCAASGFTFSSYAMHWVRQAPGKGLEWVSAISGSGGSTYYADSVKGRFTISRDNAKNSLYLQMNSLRAEDTAVYYCARDTRGYFDLWGRGTLVTVSSGGGGSGGGGSGGGGSSELTQDPAMSVALGQTVRITCQGDSLRKYHASWYQQRPRQAPRLVVYGKNERPSGIPERFSGSTSGDTASLTISGLQAEDEADYYCHSRDSNADLVVFGGGTKVTVLGGGGGSCAAAEQKLISEEDLNGAAHHHHHH | 9.84e+06 | 0.102 | 0.00464 | 37600 | 6.71e+08 | 0.00149 | 0.00145 | 976000 | – | – | – | – | – | – | – | – | – | – | – | – | Ka [3]: 7.7e+08 M⁻¹; Kd [3]: 0.0013 µM; koff [3]: 0.00137 s⁻¹; kon [3]: 1.06e+06 M⁻¹ s⁻¹; Ka [4]: 4.36e+08 M⁻¹; Kd [4]: 0.0023 µM; koff [4]: 0.00282 s⁻¹; kon [4]: 1.23e+06 M⁻¹ s⁻¹ |
| purified dimer sFv5AF-Cys (scFv, also called 5Afcys Dimer; sFv5AF-Cys dimer) scFv: DYKAKQVQLVQSGGGVVQPGRSLRLSCAASGFTFSSYAMHWVRQAPGKGLEWVSAISGSGGSTYYADSVKGRFTISRDNAKNSLYLQMNSLRAEDTAVYYCARDTRGYFDLWGRGTLVTVSSGGGGSGGGGSGGGGSSELTQDPAMSVALGQTVRITCQGDSLRKYHASWYQQRPRQAPRLVVYGKNERPSGIPERFSGSTSGDTASLTISGLQAEDEADYYCHSRDSNADLVVFGGGTKVTVLGGGGGSCAAAEQKLISEEDLNGAAHHHHHH | – | – | – | – | 5.02e+08 | 0.00199 | 0.00217 | 1.09e+06 | – | – | – | – | – | – | – | – | – | – | – | – | fold difference in affinity against the purified monomer [5]: ~3 fold; fold difference in affinity against the purified monomer [6]: ~3 fold; fold difference in affinity against the purified monomer [7]: ~3 fold; Ka [3]: 4.61e+08 M⁻¹; Kd [3]: 0.00217 µM; koff [3]: 0.00244 s⁻¹; kon [3]: 1.12e+06 M⁻¹ s⁻¹; Ka [4]: 5.01e+08 M⁻¹; Kd [4]: 0.002 µM; koff [4]: 0.00341 s⁻¹; kon [4]: 1.71e+06 M⁻¹ s⁻¹ |
| purified monomer sFv5AF-Cys (scFv, also called 5Afcys Monomer; sFv5AF-Cys monomer) scFv: DYKAKQVQLVQSGGGVVQPGRSLRLSCAASGFTFSSYAMHWVRQAPGKGLEWVSAISGSGGSTYYADSVKGRFTISRDNAKNSLYLQMNSLRAEDTAVYYCARDTRGYFDLWGRGTLVTVSSGGGGSGGGGSGGGGSSELTQDPAMSVALGQTVRITCQGDSLRKYHASWYQQRPRQAPRLVVYGKNERPSGIPERFSGSTSGDTASLTISGLQAEDEADYYCHSRDSNADLVVFGGGTKVTVLGGGGGSCAAAEQKLISEEDLNGAAHHHHHH | – | – | – | – | 1.77e+08 | 0.00564 | 0.00241 | 428000 | – | – | – | – | – | – | – | – | – | – | – | – | Ka [3]: 1.73e+08 M⁻¹; Kd [3]: 0.00577 µM; koff [3]: 0.00256 s⁻¹; kon [3]: 443000 M⁻¹ s⁻¹; Ka [4]: 1.77e+08 M⁻¹; Kd [4]: 0.00563 µM; koff [4]: 0.00303 s⁻¹; kon [4]: 538000 M⁻¹ s⁻¹ |
| [dimer sFv5AF-Cys]-SPDP-[15 kD protein] conjugate (Az019) (other, also called AzO19; Az0019) scFv 1: DYKAKQVQLVQSGGGVVQPGRSLRLSCAASGFTFSSYAMHWVRQAPGKGLEWVSAISGSGGSTYYADSVKGRFTISRDNAKNSLYLQMNSLRAEDTAVYYCARDTRGYFDLWGRGTLVTVSSGGGGSGGGGSGGGGSSELTQDPAMSVALGQTVRITCQGDSLRKYHASWYQQRPRQAPRLVVYGKNERPSGIPERFSGSTSGDTASLTISGLQAEDEADYYCHSRDSNADLVVFGGGTKVTVLGGGGGSCAAAEQKLISEEDLNGAAHHHHHH scFv 2: DYKAKQVQLVQSGGGVVQPGRSLRLSCAASGFTFSSYAMHWVRQAPGKGLEWVSAISGSGGSTYYADSVKGRFTISRDNAKNSLYLQMNSLRAEDTAVYYCARDTRGYFDLWGRGTLVTVSSGGGGSGGGGSGGGGSSELTQDPAMSVALGQTVRITCQGDSLRKYHASWYQQRPRQAPRLVVYGKNERPSGIPERFSGSTSGDTASLTISGLQAEDEADYYCHSRDSNADLVVFGGGTKVTVLGGGGGSCAAAEQKLISEEDLNGAAHHHHHH | – | – | – | – | – | – | – | – | 1.39e+08 | 0.00718 | 0.00109 | 152000 | 1.52e+08 | 0.00657 | 0.00108 | 164000 | 1.06e+08 | 0.00939 | 0.00196 | 209000 | – |
| [monomer sFv5AF-Cys]-SPDP-[15 kD protein] conjugate with c-myc tag (Az018a) (other) scFv: DYKAKQVQLVQSGGGVVQPGRSLRLSCAASGFTFSSYAMHWVRQAPGKGLEWVSAISGSGGSTYYADSVKGRFTISRDNAKNSLYLQMNSLRAEDTAVYYCARDTRGYFDLWGRGTLVTVSSGGGGSGGGGSGGGGSSELTQDPAMSVALGQTVRITCQGDSLRKYHASWYQQRPRQAPRLVVYGKNERPSGIPERFSGSTSGDTASLTISGLQAEDEADYYCHSRDSNADLVVFGGGTKVTVLGGGGGSCAAAEQKLISEEDLNGAAHHHHHH | – | – | – | – | – | – | – | – | 9.62e+06 | 0.104 | 0.00449 | 43200 | 9.69e+06 | 0.103 | 0.00535 | 51800 | 1.24e+07 | 0.0806 | 0.0038 | 47100 | – |
| single chain antibody sFv5AF (scFv) scFv: DYKAKQVQLVQSGGGVVQPGRSLRLSCAASGFTFSSYAMHWVRQAPGKGLEWVSAISGSGGSTYYADSVKGRFTISRDNAKNSLYLQMNSLRAEDTAVYYCARDTRGYFDLWGRGTLVTVSSGGGGSGGGGSGGGGSSELTQDPAMSVALGQTVRITCQGDSLRKYHASWYQQRPRQAPRLVVYGKNERPSGIPERFSGSTSGDTASLTISGLQAEDEADYYCHSRDSNADLVVFGGGTKVTVLGAAAEQKLISEEDLNGAAHHHHHH | 4.47e+06 | 0.224 | 0.00464 | 27100 | – | – | – | – | – | – | – | – | – | – | – | – | – | – | – | – | percent transcytosis, pIgR expressing MDCK cells, overnight [11]: 2% |
| single chain antibody sFv5A (scFv) scFv: QVQLQQSGGGVVQPGRSLRLSCAASGFTFSSYAMHWVRQAPGKGLEWVSAISGSGGSTYYADSVKGRFTISRDNAKNSLYLQMNSLRAEDTAVYYCARDTRGYFDLWGRGTLVTVSSGGGGSGGGGSGGGGSSELTQDPAMSVALGQTVRITCQGDSLRKYHASWYQQRPRQAPRLVVYGKNERPSGIPERFSGSTSGDTASLTISGLQAEDEADYYCHSRDSNADLVVFGGGTKVTVLGAAAEQKLISEEDLNGAAHHHHHH | 6.31e+06 | 0.158 | 0.00464 | 29300 | – | – | – | – | 2.16e+07 | 0.0463 | 0.00337 | 72900 | 1.93e+07 | 0.0518 | 0.00397 | 76700 | 2.95e+07 | 0.0339 | 0.00262 | 77300 | – |
| [monomer sFv5AF-Cys]-SPDP-[15 kD protein] conjugate without c-myc tag (Az018b) (other, also called Az0018b; not shown: the 15 kD protein (never identified); the exact point where the c-myc/His tail was lost) scFv: DYKAKQVQLVQSGGGVVQPGRSLRLSCAASGFTFSSYAMHWVRQAPGKGLEWVSAISGSGGSTYYADSVKGRFTISRDNAKNSLYLQMNSLRAEDTAVYYCARDTRGYFDLWGRGTLVTVSSGGGGSGGGGSGGGGSSELTQDPAMSVALGQTVRITCQGDSLRKYHASWYQQRPRQAPRLVVYGKNERPSGIPERFSGSTSGDTASLTISGLQAEDEADYYCHSRDSNADLVVFGGGTKVTVLGGGGGSC | – | – | – | – | – | – | – | – | 9.3e+06 | 0.107 | 0.00465 | 43200 | 9.5e+06 | 0.105 | 0.00557 | 52900 | 1.28e+07 | 0.0779 | 0.00385 | 49400 | – |
